# Results from US12077763B2, “RNA-based control of powdery mildew” (Greenlight Biosciences, Inc., priority 2021, dated 2024).
# B1: GS3362 (nucleic acid)
# sense: UACCCGUCUGCAACAGGUACAGGUGGUUACGCAUCGCCAACAGGGACCAGUUACCCUACACCUACUGGAGGUUACUCUGAAGAGCCCUACCACUAUAAAGGUGUCAAGCUAGGUCAUUGAGAGGAUUGAGUUACGAAAUUUGAUUGCAGCCACGCCUUCGACUUCAACCGAGAAGAGUUCCAAUCUCCCUCUUAGACGCAGGACUACUCUCACGAUACUUCUGUCUCUACUUCUUCUCAUGAGCACGCUAAUACUCUCUAAGCCUCCGUUGAUGUGUUGAAAGACAGGCACCUCAGUUUUGAUUCUAUUCAGCUCGGCAAACAUGUUGUGUACAUUCAUAGACUGAAUUUCUUUUUUAUUAUUUUUUUCCAAAUACACUCUUCCUGGAAAAAGAAGCCCU
# antisense: AGGGCUUCUUUUUCCAGGAAGAGUGUAUUUGGAAAAAAAUAAUAAAAAAGAAAUUCAGUCUAUGAAUGUACACAACAUGUUUGCCGAGCUGAAUAGAAUCAAAACUGAGGUGCCUGUCUUUCAACACAUCAACGGAGGCUUAGAGAGUAUUAGCGUGCUCAUGAGAAGAAGUAGAGACAGAAGUAUCGUGAGAGUAGUCCUGCGUCUAAGAGGGAGAUUGGAACUCUUCUCGGUUGAAGUCGAAGGCGUGGCUGCAAUCAAAUUUCGUAACUCAAUCCUCUCAAUGACCUAGCUUGACACCUUUAUAGUGGUAGGGCUCUUCAGAGUAACCUCCAGUAGGUGUAGGGUAACUGGUCCCUGUUGGCGAUGCGUAACCACCUGUACCUGUUGCAGACGGGUA
# B2: GS3445 (nucleic acid)
# sense: GAAGACCAAGCUAGAGCGAGUACAAAAACAUCCCGCAACAUAUCAAUGUCAUCUUUGCCCCAAAAAAUUUACUCGCGCCUAUAAUCUUCGCUCCCAUCUCCGAACGCAUACAAACGAGCGACCUUUUAUCUGUUCCAAGUGCACAAAAGCUUUUGCGCGUCAGCAUGAUCGAAAACGACAUGAGAGCCUACAUUCAGGUGAAAAAAGAUUUAUUUGUAGAGGAGAACUUAAAAAUGGUGGUCAUUGGGGCUGUGGCCGUCCCUUUGCUCGUGCAGAUGCCUUAAAUCGACAUUUCCGAUCGGAAGCAGGCCGAGCUUGCAUAAAUCCACUCAUAGAGGAAGACGAAUCUGAAAAUCUACGGCUAUGGAAUGAGAAACAAAUUCAAAAUAUUAAACAAA
# antisense: UUUGUUUAAUAUUUUGAAUUUGUUUCUCAUUCCAUAGCCGUAGAUUUUCAGAUUCGUCUUCCUCUAUGAGUGGAUUUAUGCAAGCUCGGCCUGCUUCCGAUCGGAAAUGUCGAUUUAAGGCAUCUGCACGAGCAAAGGGACGGCCACAGCCCCAAUGACCACCAUUUUUAAGUUCUCCUCUACAAAUAAAUCUUUUUUCACCUGAAUGUAGGCUCUCAUGUCGUUUUCGAUCAUGCUGACGCGCAAAAGCUUUUGUGCACUUGGAACAGAUAAAAGGUCGCUCGUUUGUAUGCGUUCGGAGAUGGGAGCGAAGAUUAUAGGCGCGAGUAAAUUUUUUGGGGCAAAGAUGACAUUGAUAUGUUGCGGGAUGUUUUUGUACUCGCUCUAGCUUGGUCUUC
# B3: GS3361 (nucleic acid)
# sense: AAUAAGUGUCUGGAUUGUUGAAUGGGAUUCUUUUUAGUCGAUCAAUUUCAAUUAACUCAUAACGCAGAAAUUUCUUAAAAUUGAACGAUUUAUAGGAACCGAUGUGAAAUUUUCUUCAAUCUCCAUGUCAAUCGCAGAUGUGGGCAAAAAAGAUUGGGAAGAGAAUUCUUAGUUAUAUUUCAUUUGAAUACUAUUGGGGUAAUGCAUGUCCAAAGAGUCUCGUACCAAGAGAUACCUUUAUCUGGAAAUAAUUAGAAGAUUUACCCGUCUUACCUUGAUGAAUUGUGUGUUAGAGAUACACCAUGGCUAAGAUAUUAAUAUCUAUUUAGUUUGGGAAGUUGAUGACGAUACAUCACAGUUCUCUGUAAAUUUUGUUAUUUCCUCUAAUAUCAUUAA
# antisense: UUAAUGAUAUUAGAGGAAAUAACAAAAUUUACAGAGAACUGUGAUGUAUCGUCAUCAACUUCCCAAACUAAAUAGAUAUUAAUAUCUUAGCCAUGGUGUAUCUCUAACACACAAUUCAUCAAGGUAAGACGGGUAAAUCUUCUAAUUAUUUCCAGAUAAAGGUAUCUCUUGGUACGAGACUCUUUGGACAUGCAUUACCCCAAUAGUAUUCAAAUGAAAUAUAACUAAGAAUUCUCUUCCCAAUCUUUUUUGCCCACAUCUGCGAUUGACAUGGAGAUUGAAGAAAAUUUCACAUCGGUUCCUAUAAAUCGUUCAAUUUUAAGAAAUUUCUGCGUUAUGAGUUAAUUGAAAUUGAUCGACUAAAAAGAAUCCCAUUCAACAAUCCAGACACUUAUU
# B4: GS1799: dsRNA trigger SEQ ID NO 193; gene target Transposon Tf2-6 polyprotein (nucleic acid)
# DNA: GTAGCGAGGATGGACACTGGAGAACGGTTCGAAGTATACTTGACAAATTACGAAAAGCTGGGCTATATCTCGATATTGATAAATGTGAGTTTTTATGTAAAGAAGTCAAATATTTGGGGTTTATTGTGAAAGCTGGTAAAAGTGTGGCCGTTGATCAATCGAAGGTGAAGGCCATTCTGGAGTGGGAAGCGCCAACTACGGTTAGAGGGGTAAGATCATTTCTCGGATTCGCCAACTTCTATCGGTGCTTTATTAAGGGATTTTCCGACATTACATCACCCCTAGTTGCCCTGACGAAAAAAAAGGTGGAATGGCGATGGGGGCGTGACGAAAATGATGCGTTTGAAAGGCTCAAAGAAATATTCTCATCACAGCCTGTTTTAGCACAGTGGGATCCAGAGAAGGAAACAATTTTGGAAGCTGATAGTTCTGGCTTTGCAATTGGTGGTTGTCTCTCACAGGTGGATGAACACGGCCAAATAAGACCTGTGGCTTATTTCTCGAAGAAGTTAAATAGTGCCGAAGCTAATTACCCAATCCATGACAAAGAATTACACGCAATAGTCACGTGCTTAAAAGAATGGAAACCAGAGCTAAT
# B5: GS3360 (nucleic acid)
# sense: CAGUGCUCUCGCAGCAGGCCAUUUAGUCAAGAGCCAUAUGGCACAUAACAGAAGUGCUCCUAUUACAAGAAGUAAUACACCUGCUCAGAUUAGCACACACCCAUCAAUGAUAUCAACAAAUAGCAUGAGAGAAAAAUAUUGAGAUUUGAAAUUCUAAUUGUGUAAAUGAGCUCAGCUAUAUUGAAAAUAAAUUGGUAAUCUAAUAUAGAGGUAGAACUAGUUCGAUUUUUAUACUCAUUAAAAAAAGGAACUAAUAUUGGUAAAGGGUUAAGCUAUGAAAUUAGCUAUCCUUUUUUUUCCUAUUUAUUGAAAA
# antisense: UUUUCAAUAAAUAGGAAAAAAAAGGAUAGCUAAUUUCAUAGCUUAACCCUUUACCAAUAUUAGUUCCUUUUUUUAAUGAGUAUAAAAAUCGAACUAGUUCUACCUCUAUAUUAGAUUACCAAUUUAUUUUCAAUAUAGCUGAGCUCAUUUACACAAUUAGAAUUUCAAAUCUCAAUAUUUUUCUCUCAUGCUAUUUGUUGAUAUCAUUGAUGGGUGUGUGCUAAUCUGAGCAGGUGUAUUACUUCUUGUAAUAGGAGCACUUCUGUUAUGUGCCAUAUGGCUCUUGACUAAAUGGCCUGCUGCGAGAGCACUG
# System: E. necator
# Assay: Leaf disc assay, dry inoculum (settling tower), decrease in disease severity / hyphal growth (Example 2)
# Details: decrease in disease severity (hyphal growth) relative to untreated control; time point 1 (untreated control hyphal growth ≥50%); value ± SE
row,Molecule,% decrease =/− SE TP1 [%]
1,B1,14 ± 4
2,B2,14 ± 9
3,B3,16 ± 3
4,B4,16 ± 5
5,B5,36 ± 4

# Same assay, conditions: decrease in disease severity (hyphal growth) relative to untreated control; time point 2; value ± SE
row,Molecule,% decrease =/− SE TP2 [%]
1,B2,16 ± 10
2,B4,8 ± 6
3,B5,30 ± 5
